Assay results taken from the supplement of paper PMC12042874.
± gives the uncertainty stated by the source.

Assay: amyloid nucleation score (Sup35N fusion, yeast selection) (log enrichment); library NNK2; higher = more nucleation; inactive = no reads after selection
Procedure, shortened: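 Sup35N was fused to peptides of 20 random codons and expressed in psi-negative yeast, which were induced with 100 μM copper sulfate for 24 hours and then grown on medium lacking adenine and uracil for 7 days at 30°C. Plasmid inserts from input and output were sequenced on Illumina. The nucleation score is the DiMSum log enrichment of output over input reads, centred on the mode score of non-aggregating sequences. Sequences with under 100 input reads were left out, and random libraries had three technical output replicates.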

Substance	amyloid nucleation score
IGTEMLTVYIFTYSSA	0.416 ± 0.74
RIQSSFFHCC	7.825 ± 0.036
RPQKSSARRIVPFMMFWLGN	0.426 ± 0.36
FRNENC	inactive
EKYRGSLMSRLAKMWNCCVT	1.04 ± 0.27
VLLFLSMEVLNRNGMKVPVM	2.17 ± 0.16
LIVTLSDRWWEKGASLVESG	0.699 ± 0.15
RFFFYGLGMFYIETFYLLWF	inactive
NRSREELYARNKQYFSFI	-0.986 ± 0.76
HVRGDLSRTGKWVMLRCYTR	inactive
GDQPRPKMLLSWHRFLLQQS	0.887 ± 0.19
WVNSCVPGLARPNSLFFNRS	-0.491 ± 0.56
GLDCR	0.024 ± 0.44
RRFMYIFYLDYFFKPLLRLN	-0.369 ± 1.1
NLMIKCVGR	-1.05 ± 0.76
VKCKRCSASSFAIYVEYCCT	0.138 ± 0.17
NTIMFEFICSIGITVYD	1.33 ± 0.21
GTLGFDLKR	-0.507 ± 0.76
STWVWMSFCVNLLDPHACGS	7.542 ± 0.03
DFMFFVYPSNSMLKGISRGR	-1.77 ± 0.48
ENSFLVRKTSH	-0.262 ± 0.36
SAACQCLDFWCSGLGQSQGL	6.59 ± 0.075
YTGIESE	0.768 ± 0.21
TMCMPAHMPYQHVSYLDILT	-0.161 ± 1.1
KSFIGWLYMDTEYHWMYQPW	0.27 ± 0.28

Substance	amyloid nucleation score
YVSNLEK	-0.073 ± 1
IRGGHTLSYRVEDKRPTEWG	2.04 ± 0.2
NYSIFDWTCSSKMSIITCAK	5.697 ± 0.029
CFESHWCRYPLDGRLGHKEF	inactive
RLMVWSSL	1.87 ± 0.38
KINMLCFSWGSCVGGCRKVC	7.063 ± 0.055
WRYRHELEACWRHHSNSWYG	3.96 ± 0.052
LEHQSRSFMNFYTRPNKPLE	-0.519 ± 1
LIPIRALRHYFRFIVCV	-0.142 ± 0.61
GCYRLNSLYATIQLRLLSWW	-0.46 ± 1.1
TNITGVIRVL	-0.211 ± 0.31
SSSMSESAT	inactive
MSFWMSTTINRN	1.67 ± 0.1
AWKMVMRLDARPLARFWGDG	5.34 ± 0.092
TMLFTALDASHWG	6.696 ± 0.05
GIKHLKGTNDTSMYCHVSIV	0.298 ± 0.4
SECENAFVGVPPWRTKILWS	2.19 ± 0.12
HRFIILNIVAFE	0.59 ± 0.28
FLVYWTMLVVYGYCVFGWIN	-1.3 ± 0.78
NWVPLLFDY	inactive
QWIWSHSNHNSWIPGSGVVD	-1.13 ± 0.76
SSPLVNRFPEGVYMNCK	-0.15 ± 0.49
WTMRDLCG	0.526 ± 0.3
DFVHVEIDPYQVGGGFQ	8.764 ± 0.046
YVRAGRVNVILCVSENCIGG	8.27 ± 0.049

Substance	amyloid nucleation score
SMRSIREEAVFVLIVVLRGR	0.261 ± 0.43
CEFALYAFWCCIYLRFNKYS	-0.606 ± 0.44
QYYVGYLT	-0.738 ± 0.61
DWRRWM	0.422 ± 0.5
CRSSGFRFTLRKWCWNVNEC	-0.7 ± 0.76
TFVRVPFWFRKN	9.788 ± 0.071
AVVGDMGIC	-0.511 ± 0.63
MNSIKMEGVRYNNPNDYTFC	-1.14 ± 1.1
RLLLLPTSLLYSKSWCYSLL	-0.622 ± 0.27
IEVGRHRWALWRVAQSRLIG	0.308 ± 0.25
SFKLGSHVSDKKIGMDLCFT	-0.361 ± 0.4
RTYWGRKLNCVQF	6.716 ± 0.04
GAMDLHQWASMMNMFPAMCV	0.731 ± 0.47
KQHVRMYWIAALAPMSGRGW	4.448 ± 0.042
VHPSDGAGLYS	-1.34 ± 0.78
GLLIGSDDLLASVICVITCS	-1.15 ± 1.1
NLPLL	-0.027 ± 0.54
TAALRVILGCMYNIWQMWHR	1.06 ± 0.57
ALMLWKCKARTCISPQRRGV	0.448 ± 0.4
DCSDLVSLLCNVRHAHGRWL	4.42 ± 0.067
IFRNWGYSTFSHE	inactive
LYYVMSPWLITSRAWDGSSS	0.778 ± 0.67
SGYDFHVRMTCCIWH	9.166 ± 0.04
FTIHYAGTGCWMGMYINSDY	2.44 ± 0.062
FLFLTTVSPRWTYRCTRFLG	4.64 ± 0.055

Substance	amyloid nucleation score
CISSKHISVGVTDNLVVV	0.436 ± 0.8
AYYYWLGG	-0.381 ± 1.1
RLRSILLSWCCRFGGSQLRA	0.581 ± 0.39
IIILFQVQCHVVRLSRVHKC	-0.658 ± 0.49
GLVGPSI	-0.29 ± 0.48
YGLLHQFRSCKRI	-0.682 ± 0.29
SIYVSALDGMYSGGRDLWKR	0.601 ± 0.48
EYMPP	0.924 ± 0.16
MSYILFCLPSNARCFLP	inactive
FSVLILFMLIWNNGCYLKED	1.94 ± 0.11
LINMLGWVRFY	0.623 ± 0.44
QASSGSKDLD	0.102 ± 0.23
AFAFINIWKHLYIFQGQPSL	inactive
LLHIFLYGLSLILWWSHRTR	7.06 ± 0.079
LVFMAFC	4.839 ± 0.04
WVDMAL	0.168 ± 0.8
NRGEDSPSYPGCHHMKLCIC	inactive
YMMSRASSVIIEREYK	0.479 ± 0.74
SVAWVLLWV	0.636 ± 0.81
DRAVRQFIFLVYGSSLDWDI	0.044 ± 0.79
FCLYFSKNF	3.63 ± 0.13
FLQNWKLYRCCLRVASVGGR	4.67 ± 0.11
AFLFSRDCMERWTMYDGLWW	-0.063 ± 0.42
SCQLQDKLMLS	0.999 ± 0.16
IHNKWNKMYDRPYLIKIVAS	-0.37 ± 0.36

Substance	amyloid nucleation score
CGYVEV	0.244 ± 0.65
NICELPITHKVGSWV	0.518 ± 0.38
LCSVQLRLMVAHNSRHLACM	1.5 ± 0.25
VFGYTSRR	3.49 ± 0.057
IVQKFCVASCGLEHYVF	6.07 ± 0.073
ASGVIDIGYIIVEVVMIFYI	-0.697 ± 0.5
TLLSFRTVDNKIYKVLWVKT	0.418 ± 0.48
ALSSNPVLSCKLC	6.917 ± 0.027
LLEAQSISCYRRGVYLLGQL	3.32 ± 0.067
SARRRINGNPCEEMNQRLAV	1.08 ± 0.53
FEWWTSMGGGECVQRNNSVA	0.697 ± 0.41
VWGRMLRVGFGEV	0.066 ± 0.63
AMYEH	0.518 ± 0.46
VSLLWYHFGWLLDCFWYRWS	0.429 ± 0.8
RLKELRQDIPVMPNRQL	1.51 ± 0.3
FIWTYSYRDVWVLRVAVWLQ	0.283 ± 0.23
LIAQMM	-1.22 ± 0.48
LWNWRACARLG	1.25 ± 0.24
SHSYFSYTFQILLCEAVRGG	-0.124 ± 0.76
PTCGNSPMVRWCSAETFVWG	3.04 ± 0.13
VIVGSLRCHFSLVAWVKC	0.651 ± 0.51
DCSNDRKIYYNWAIRVVRTD	0.076 ± 0.35
RLTPYTFTWSVFEMFNLRMP	-1.09 ± 0.49
TRQLIYHWDKFSPHPAQFLT	0.652 ± 0.64
GCVLSVSWWVGSSLVNWGYY	5.356 ± 0.052

Substance	amyloid nucleation score
ESGCRHYLCLGATTIVMDS	6.619 ± 0.049
YVNFD	-0.299 ± 0.48
WYTDPDSDVAHYFAPQLK	-0.693 ± 1.1
HQRLTRVLYWKVDIGQVCGI	4.99 ± 0.065
PYISWGSTGFVNAGRY	3.74 ± 0.072
ESGVHWENTEVKGIYSYLCR	inactive
FDGLHVYQCWTPVNIARVEE	0.099 ± 0.62
DYLVRGQEY	0.357 ± 0.43
KLYSQTVSANLGVGWSSS	2.12 ± 0.15
VQYCFFCAHRDSFGFKHCF	inactive
IVGELVMTFKSVMAARTPFH	4.19 ± 0.064
LGPLVMVFCVRIPYTTMVAW	-1.25 ± 0.45
KNILGGDSFWFLLYGYHLFI	inactive
HGLTYIGIKCTYIKRVTWVR	0.389 ± 0.57
RGLLHFIFVITQYKGIYSNV	inactive
GCVPVRYIARSAWNNPDLPN	0.829 ± 0.57
NFNFNCA	3.87 ± 0.093
VVLFWLNCRRVYFLGSKYRA	0.331 ± 0.8
FGFFTTYSELAVQVIQSAVT	-0.032 ± 1.1
TFWNFGLAVQTARGIWALSW	6.57 ± 0.082
RLWNSGCLS	-0.916 ± 0.76
HGICRWL	0.208 ± 0.25
CLCGPRIGLSVFNYVYFGMG	4.2 ± 0.046
PLVTWHFS	0.413 ± 0.31
CWARMWGYSKCHSRVFSYMS	-1.1 ± 0.55

Substance	amyloid nucleation score
KFVYSGGLFTMLRSC	-0.414 ± 0.61
RVRIYMTWFFTPIIWERWDG	inactive
APCNKESIKRARGWAVRWSW	3.12 ± 0.077
RLVYGLFAYKF	5.29 ± 0.037
STLVWSEIIF	0.592 ± 0.47
AQISVSYGIWDSCTC	8.773 ± 0.032
RGHSALFTNFCGTMCGVVDG	0.148 ± 1
SAYGVVSSWMR	-0.266 ± 0.55
MIGVYDGLRHNVEQGFVWCE	0.419 ± 0.51
YKYMGLFSSIFNVLGSLISY	-1.95 ± 1.1
LTIVWLVVVYGLWGVSTFSL	inactive
DSSRRM	-1.43 ± 0.78
HAVDTHFADRGSLALKYSKC	1.19 ± 0.59
VNGSTMFQVMFWLRPVHVIE	-0.119 ± 0.53
YMLMREASGLLRPGAEMWFN	-0.177 ± 0.45
FRSFRRIILSFYEVNFGSII	inactive
RVNPCMTEGSLGLICSPYWY	-0.511 ± 0.22
SSFNTDFACSWVGYMAVVSM	-0.771 ± 1.1
QSKYVSDPSPPETR	1.48 ± 0.32
MVNCDYGPLLS	inactive
LGSNEPL	-0.337 ± 0.63
LYCIVQGKSSGIHQRATFCF	inactive
YRQRFVRKARSFYLWVMALP	-0.409 ± 0.45
